Test results as given in the DeepSol protein solubility set.

Test: soluble on expression in E. coli; label from the status in PepcDB or PDB records

Sequence | soluble on expression in E. coli
MSLIEDCLRSYRFIAIDTEFPSTLRETTQHATDEERYMDMSFSVDRAKLIQLGLTLFDINGRIGGTWEINFSDFGVDDARNEKSIEFLRRNGLDLRKIREEGIRIEGFFSEMFWMLKKTRRNITWVTFHGSYDIAYLLKGFTGEALPVTSERFSKAVARVLGSVYDLKVMAGRCEGLSSRLGLETLAHEFGLNRVGTAHHAGSNNELTAMVFAKVLSPFPLFLRFGSLELRTIESEAIV | soluble
MAHHHHHHMAADEDAREHRTMCRLLQAATGKLSDMTVTTNIETHIATLRAANMSTSPKEWHALFNSKNNSNAYEKLSAEGKKEAGALGGAAAWGAWRTDKEEAEKKKIGTQEDKDFPAIADARQQFAAHNRLLELTAKAVEISKKWKAAKDFITNDETNNIQKLLREALYEDGAAADALTQSTSFGTGSNWASHCNGDDKRKSISGDFLCMRGGSGGAAKECSGAFTGAEIDNQGTITTKWADLKASCALNTENVITPHEIAAALGSLARQPHTTRSSK | not soluble
QQQHKVLKTVKVTEQLKHCSEILKEMLAKKHLPYAWPFYNPVDADALGLHNYYDVVKNPMDLGTIKGKMDNQEYKDAYEFAADVRLMFMNCYKYNPPDHEVVAMARTLQDVFELHFAKIPDEPIES | soluble
MRPCRTGREQMTDTTMQLLSQGTDHVKVPDFDILAEGKTLSGVAERLMSLSLTDNRGFEADQLTITLDDADGQLQLPPRGARLTVLIGWKGEPLTEKGTCRFNLSMQHPFQLSLSVF | not soluble
MKSQFLLSVKEHMLTRYYANKTIESYLFWIKRFIVFHQFAHPSKLSEDDVIRFLSHLAIDEKVAVKTQALALNAISFLYRDFFKTPLSLDMRFQKSLTEKKLPVVLTRDEVRRFV | not soluble
MSYPLFDKDEHWHKPEQAFLTDDHRTILRFAVEALMSGKGAVLVTLVEIRGGAARPLGAQMVVREDGRYCGFVSGGCVEAAAAFEALEMMGSGRDREIRYGEGSPWFDIVLPCGGGITLTLHKLRSAQPLLAVLNRLEQRKPVGLRYDPQAQSLVCLPTQTRTGWNLNGFEVGFRPCVRLMIYGRSLEAQATASLAAATGYDSHIFDLFPASASAQIDTDTAVILLCHDLNRELPVLQAAREAKPFYLGALGSYRTHTLRLQKLHELGWSREETTQIRAPVGIFPKARDAHTLALSVLAEVASVRLHQEEDSCLPPSS | not soluble
MKLDLDAFRIQPGKKPNLAKRPTRIDPVYRSKGEYHELLANHVAELSKLQNVLYADNRYAILLIFQAMDAAGKDSAIKHVMSGVNPQGCQVYSFKHPSATELEHDFLWRTNCVLPERGRIGIFNRSYYEEVLVVRVHPEILEMQNIPHNLAHNGKVWDHRYRSIVSHEQHLHCNGTRIVKFYLHLSKEEQRKRFLERIDDPNKNWKFSTADLEERKFWDQYMEAYESCLQETSTKDSPWFAVPADDKKNARLIVSRIVLDTLESLNLKYPEPSPERRKELLDIRKRLENPENGK | not soluble
MAHHHHHHMGTLEAQTQGPGSMTPAAHPPRAAIADIAGHLPEQVLTNDVLAQLYPDWPAEKILAKTGIRERRIAAPRETAADLAYEAARKLFAQGAVGADQVDFVILCTQAPDYVLPTSACMLQHRLGIPTHAGALDVNLGCSGYVYGLSLAKGLVETGAARCVLLLTADTYSKYLHPLDKSVRTLFGDGASATAVIAEHGELERIGPFVFGTDGRGAPNLIVKAGLFREPKSADSAREHEDASGNVRTDEHLYMNGAEVMAFSLAEVPRAADRLLALAGEPRENIDCFVLHQANRFMLDALRKKMKIPEHKFPVLMEHCGNTVSSTLPLALETMRANGTLARGMRLMLLGFGVGYSWAGCLVNF | soluble
MKMSELEKMLKGEHFDGASAEIEALRSQAGRLKLEINQSLDEAERYALQRELFGHLGHKSCVQPPFHCEFGKTIRIGDHTFINMNVVMLDGAPITIGDHVLIGPSTQFYTASHSLDYRRRQAWETICKPIVIEDDVWIGGNVVINQGVTIGARSVVAANSVVNQDVPPDTLVGGTPARILRSLKDPAESMAE | not soluble
MQLDTIHKITGTLILKSGLHIGAGDSEMRIGGTDSPVVKDPLTDQPYIPGSSLKGKIRSLLEWRHGLVVATGGAPYSFKHLAQDENNSAGRDVIKLFGGAPDKAEDQLVKNIGPTRLAFWDCPLNGDWKKEAADSRHLLTTEVKSENSINRIAGTAEHPRFIERVIAGARFDFTLTLKVLEGDDLLNTVLLGLRLLELDSLGGSGSRGYGKIKFAELKLDGTDLMEQFHAITPFNQTA | not soluble
INLPWYLSPIAIPVTQILSAVSPLPRYAPGHKPYFPKPFEDNPLSQSAGRYQWFRNLYTEKPELQVGGPSTRWVWQGLMAAKQCFLLTRQVKVPVLLVQAGNDRIVSNLAQKRFIEKLRKTNPHAALLSIEGAQHEILFETDQYRNQALDAIFRFMDDPTSSSDEKMQ | not soluble
TSSDTQNNKTLAAMKNFAEQYAKRTDTYFCSDLSVTAVVIEGLARHKEELGSPLCPCRHYEDKEAEVKNTFWNCPCVPMRERKECHCMLFLTPDNDFAGDAQDIPMETLEEVKASMA | soluble
SLSAPIRVLVVDDHVLSRRELEVALAAEADIEVVGSAVNSPAAVTLGSESRPDVALVDVEEPHEDGIRAVSAIKRAVSPVRILILATSDDEAHLFGAVRAGAVGYLLKPRPMDELTAAVRSVHNGVSIIGPGVASQVMKEFAAMARSEKSPAMPHLTVRELDVLKLMVGGCANQGISRRLLISENTVKNHIRNILEKLQFSAWEG | soluble
MTMTQQIKAVVYDFGGVLLSYEGVMEKWVAMSRSLGLPDDAVHSESVGIEFSQWLGPDRSLFLGTLTVDDLEGGLFLQYLKHKYGNKLTDNVVIKPFTECLRGENVKIHKNMQKTVEILHKKGFKTAMLTNNMFLDKEHKETRLPCDLTHFDEVVESCLEHLMKPDARFYHLVEKRLGVKPEEIVFLDDLHENIEAAEKLGWNTILVEDIEKAIHELEGFTKVKLI | not soluble
MNACVSVVCYKSKTLSNGENPLMLQVSKGGKRKYQSLGISINPKYWDFTRNKPKPNCPNKEYIQKIILDKQRELQQRMLELNSEQKEYTTTTLLNNENTKFELKTVSMFYKELIEQYTREDKCGNRLIYKGSFNSLKVFTNGKLDIPFNEIDIAWLNKYEKWLRSKGNRETTISLLFRTLRSAYNKAIKAKCARKSDYPFDDYKINKFDTTTQKRAIAKTDVLKFTTEVQPIGKQQYMELSKDIFVFSYLCGGINFTDIANLTNENIQNGRLHYIRQKTKKPIKIGIPQEAMQIIEKYSKESKG | not soluble
MRGSHHHHHHGSMTRSALVTGITGQDGAYLAKLLLEKGYRVHGLVARRSSDTRWRLRELGIEGDIQYEDGDMADACSVQRAVIKAQPQEVYNLAAQSFVGASWNQPVTTGVVDGLGVTHLLEAIRQFSPETRFYQASTSEMFGLIQAERQDENTPFYPRSPYGVAKLYGHWITVNYRESFGLHASSGILFNHESPLRGIEFVTRKVTDAVARIKLGKQQELRLGNVDAKRDWGFAGDYVEAMWLMLQQDKADDYVVATGVTTTVRDMCQIAFEHVGLDYRDFLKIDPAFFRPAEVDVLLGNPAKAQRVLGWKPRTSLDELIRMMVEADLRRVSRE | soluble
MSDVRPPLPPFTAETAAQKVRAAEDGWNSRDPQRVSLAYSPDSVWRNRSTFVRGRERIVEFLSGKWQREQEYRLIKELWAFTGNRIAVRFAYEWHDDSGNWFRSYGNENWAFDEQGLMYERHASINDLPIREDQRLFRWLLGRRPDNHPSLGELGLLEHHHHHH | soluble
MADLQKNFQTSFRDAMASCAAGVHVITTDGAAGRYGITMTAVAPVTDEPPTVMLCINRSARIIPILSENGSLCINTLADEHQDVAEHFAGLTGLSPEERFAYHIWHRGKTGQLEIEGALAHLHGHIVGKHEIGTHFVFYVRLDEIKNCGCKRPALLYFRRQFRFLD | not soluble
MATIIFAGRSNVGKSTLIYRLTGKKVRRGKRPGVTRKIIEIEWKNHKIIDMPGFGFMMGLPKEVQERIKDEIVHFIEDNAKNIDVAVLVVDGKAAPEIIKRWEKRGEIPIDVEFYQFLRELDIPTIVAVNKLDKIKNVQEVINFLAEKFEVPLSEIDKVFIPISAKFGDNIERLKNRIFEVIRERQGRRV | soluble
DAYIGVLIDDLVTKGTNEPYRLLTSRAEYRLLLRHDNADLRLTEIGHRIGLISDERYAAFEKKKAAIEAEKKRLHSVIIKPSPENQEYIRSLGGSELKDGVRGTDLMKRPEMNYETVTKLAPPEVPVPQDVAEQVEIQVKYEGYIEKSLQQVEKLKKMENKKIPDRIDYDAIKGIATEARQKLKNVRPLSVAQASRISGVNPADISILLVYLE | not soluble
MTYCHQFLSNLSSLTRFRLHTGNVNGYTQLKVRRFETSAEELAACLDLQLSSNPIADDFKENSCLLLCDNDHIDNYERDEIKITMKVFLSAWDVQQIDQAVTSLKEQLKTKDIEVLILSFPELDLIDGESEEDENNRWFEKVKPLYTYMEKLVETSEIASIGVSDFSARQLKTIIDHFDVKPSINHVRLDGCCQVPPELQALANDNDVQLLVHNDPTPFPTNNIFKTFCEIDSGSQKAVCSPLFETTWLSRYSVWVRKRSIMTSKGYIVQFFRKHD | not soluble
MRLSILLLVAAHVANGLFGFGEKKTTQAPKISLGSEISIPHTDEDQDTGEIVIPFNDPSTTTTRRRTATTTGIPVISVGGIGLDRTRSTVDVRSFTTTINPRFTAATKRLPSSDRHSSSGCPNRIDAYTFGPDSDYAFYEQQVFKISNNRISDRTTLVEEFKDGPNQVNGALYDPEREILWLVDGRSVYGYKKDGSDNWKLQSVFPKELPSSIGFTPEAAVRWHNKHQLLLSNGGKFALYDEYWNKSLMTGRTESYFENLPDRVRGISTWNSQGHAHIYTQSLVFEYDSEMKKVTGDGVPLGDFWRC | not soluble
MGSDKIHHHHHHMNQEDDAKLAYLMAVNAIQMTKARYCRFVDTKQWDRLRTLFTADCRFEGLGSAPDRADLDIFIQGISRRLAHVVSVHHCHMGEIELVGADEAKVIWAMEDHLEWQDSGEVVEAPGNRGFRGYGHYEECYVRQGDTWKISLLRLTRLGIHPIPDAQPRLGTGRLGANPDWLPSDRRLR | not soluble
MRPSAPNIWIWKVSNLASDPRETVSGEWYAARSNLSSAARLRHGGTLLLVLDAKDNHVITKAEIKAVEISHRVGTIPREIHFPDGSLFETSDNEGVDRLLGLYLPKRAGFVHRLEQFRPRLIGITAAAVLLAYGTYKLALPAVVELAVAMTPPIVPKIMSASTMQALDQTVFSASELPLEEQNAIRVQFSRIAAHAEGSPEDYKLNFRKGGYIGPNAFALPDGTLVLTDELVELAGGDRQMIIGVLAHEIGHVEYEHSLRQLYRAAGVAGLVMLIAGDVGSAMEDILTQGGGLLALSHSRDAERQADQRSVELMRKADLDPTAIERFFALLEEKLGDKGGTSIISTHPGTPQRRKAIIDYNASLDNKPAGNLEHHHHHH | not soluble
MTPFTVDILIPIWNRPVETRNCLVTLMETTPSARLILIDNGSDRETERLLEEFSEILGERALFLKTSANQGFVRAVNRSLAQVEAPYAVVMQNTTLVTRGWLEPMVELADSRPDAGIIVPRLELEDGQGRRPKAAPPAGPVTEVSHGSFAASMVRRELVERQGGFDEELDGGPWCLRDYSRRAFRNGFLTLALDGAVVTYAEEVPLGSVARREETVRRSAETCRARWGREDAFCIYFPKDAEPEAVHGKLDVILRGARMGQCFTLILHPGLHKSLMETGHAPLHSNIALAPLPRFFATGEIRKIIGKLASVRGDTVTVAGVDGLSIPGVEGARSFSWLADEIRRRHESLYRPESP | soluble
